Assay results: patent US9205136B2, “Human aminoacyl-tRNA synthetase polypeptides useful for the regulation of angiogenesis” (THE SCRIPPS RESEARCH INSTITUTE, priority 2000, dated 2015)
“Also recorded” adds a separate entry of the source.

Key:
MPs [1] = experiment: MP chemotaxis assay (ChemoTX microchemotaxis chamber); assay type: cell-based, human; conditions: sample proteins 1 nM, 3 hours
Method: (§1) Cells for the various cytokine assays described were prepared from acid citrate dextrose-treated blood of normal healthy volunteers. Human PMNs were isolated from the blood by centrifugation (700×g) over Histopaque 1077 and 1119 (Sigma). […] This procedure was repeated twice. Human MPs were isolated by centrifugation on Histopaque 1077 (Sigma). The mononuclear fraction was obtained, washed twice in Hanks' balanced salt solution, resuspended in RPMI-1640 medium (Sigma) containing 10% heat-inactivated fetal bovine serum (Sigma), plated in tissue culture flasks, and incubated in a 6% CO2 incubator at 37° C. for 1-2 hours (Kumagai et al., 1979, J. Immunol. Methods 29:17-25). Nonadherent cells were removed by washing the flasks three times with Hanks' balanced salt solution, and adherent cells were harvested by incubation with calcium-magnesium free phosphate-buffered saline containing 2 mM EDTA for 15 minutes at 4° C., followed by extensive washing.
MP chemotaxis assays were performed in a ChemoTX microchemotaxis chamber (Neuro Probe, Gaithersburg, Md.) containing polycarbonate filters (5 μm pores) with polyvinylpyrrolidone (PVP). MPs were suspended in RPMI-1640 medium containing 1% heat-inactivated fetal bovine serum, and 10^4 cells were added to the upper chamber. Sample proteins (1 nM) were added to the lower compartment of chemotaxis chambers, and the chambers were incubated for 3 hours. After incubation, nonmigrating cells were removed, membranes were fixed in methanol, and migrating cells were visualized with the HEMACOLOR™ stain set (EM Diagnostic Systems, Gibbstown, N.J.). Migrating cells were counted in high-power fields (HPFs). Each determination shown in FIG. 2 represents the average of nine HPF measurements.

MPs [2] = experiment: MP TNFα production (ELISA of culture supernatant); assay type: cell-based, human; conditions: 1 nM sample protein, 14 hours
Method: as §1
MP TNFα production was examined following incubation of 10^5 MPs with 1 nM of sample protein for 14 hours. Aliquots of the culture supernatant were then assayed for TNFα production using a TNFα enzyme-linked immunosorbent assay kit (Sigma). Each determination shown in FIG. 2 represents the mean of four measurements from at least three independent experiments.

MPs [3] = experiment: MP tissue factor production (Factor VIIa-dependent Factor Xa formation); assay type: cell-based, human; conditions: 1 nM sample protein, 4 hours
Method: as §1
MP tissue factor production was examined following incubation of 10^4 MPs with 1 nM of sample protein for 4 hours. Tissue factor activity was then inferred from measurements of Factor VIIa-dependent Factor Xa formation (Wolfson et al., 1990 J. Chromatogr., 503:277-81). Each determination shown in FIG. 2 represents the mean of four measurements from at least three independent experiments.

PMNs [4] = experiment: PMN release of myeloperoxidase; assay type: cell-based, human; conditions: 1 nM sample protein, 60 minutes
Method: as §1
PMN release of myeloperoxidase was examined following incubation of 3×10^6 PMNs per mL with 1 nM of sample protein for 60 minutes. The generation of peroxidase was then measured by the reduction of 3,3′,5,5′-tetramethylbenzidine (Barker et al., 1982, FEBS Lett. 150:419-23). Peroxidase activity is shown in FIG. 3 as the percent of total peroxidase activity where 100% peroxidase activity is defined as the activity observed for 3×10^6 PMNs following exposure to 10 μM phorbol ester for 60 minutes. Each determination shown in FIG. 3 represents the mean of four measurements from at least three independent experiments.

PMNs [5] = experiment: PMN chemotaxis assay (ChemoTX microchemotaxis chamber); assay type: cell-based, human; conditions: for PMN chemotaxis (PMN migration): sample proteins 1 nM, 45 min
Method: as §1
PMN chemotaxis assays were performed in a ChemoTX microchemotaxis chamber (described herein). Sample proteins (1 nM) were added to the lower compartment of chemotaxis chambers, and 10^4 PMNs were added to the upper compartment. Chambers were incubated for 45 min, and migrating cells were counted in HPFs. Each determination shown in FIG. 2 represents the average of nine HPF measurements.

PMNs [6] = experiment: 125I-human mini TyrRS binding and competition assay on PMNs; conditions: 10 nM 125I-mini TyrRS, 200-fold molar excess of unlabeled ligand, on ice 2 hours
Method: The interaction of human mini TyrRS and PMNs was examined in binding studies using radioiodinated TyrRS molecules (Moser et al., 1993, J. Biol. Chem. 268:7125-28). Custom radioiodination of mini TyrRS with was performed by Research & Diagnostic Antibody (Richmond, Calif.). In the binding assays, 2×10^6 PMNs were first suspended in 120 μl of RPMI-1640 medium containing 20 mM Hepes (pH 7.4) and 10 mg/ml bovine serum albumin. […] Following incubation, cells were separated from unbound radioactivity by centrifugation at approximately 8000×g for 2 minutes through 500 μL, of a 10% sucrose/phosphate-buffered saline (PBS) cushion. The supernatant was aspirated, and the cell sediment was resuspended using EcoLite (ICN Biomedicals, Irvine, Calif.) and analyzed in a scintillation counter.
Following incubation, cells were separated from unbound radioactivity as described herein.

[7] = tested on: human umbilical vein endothelial cells (HUVECs); experiment: HUVEC migration assay (modified Boyden chamber); assay type: cell-based; conditions: 50 nM TyrRS molecule or 0.5 nM VEGF165, 6 hours
Method: In contrast, α-chemokines lacking the ELR motif act as angiostatic factors (id.). In order to evaluate the angiogenic activity of TyrRS, which contains the ELR motif, human full-length TyrRS and human mini TyrRS were first examined for their ability to induce endothelial cell migration. Such angiogenic assays were performed using human umbilical vein endothelial cells (HUVECs) (Clonetics, Walkersville, Md.). Cells were maintained in EGM-2® BULLETKIT® medium (Clonetics) in an atmosphere of 6% CO2 at 37° C. according to the supplier's instructions.
Cell migration assays were performed using the modified Boyden chamber (6.5 mm Transwells) with polycarbonate membranes (8.0 μm pore size) (Costar Corp., Cambridge, Mass.) (Masood et al., 1999, Blood 93:1038-44). Wells were coated overnight with 25 μg/mL human fibronectin (Biosource International, Camarillo, Calif.) in PBS and then allowed to air-dry. HUVECs were suspended in Dulbecco's modified Eagle's medium (DMEM) (Gibco-BRL, Gaithersburg, Md.) containing 0.1% BSA (Sigma) and 2×10^5 cells per well were added to the upper chamber. The chemotactic stimulus (50 nM of a given TyrRS molecule or 0.5 nM of human vascular endothelial growth factor-165 (VEGF165) (Biosource International, Camarillo, Calif.)) was placed in the lower chamber, and the cells were allowed to migrate for 6 hours at 37° C. in a 6% CO2 incubator. After incubation, non-migrant cells were removed from the upper face of the Transwell membrane with a cotton swab and migrant cells, those attached to the lower face, were fixed in methanol and visualized with the HEMACOLOR® stain set (EM Diagnostic Systems, Gibbstown, N.J.). Migrating cells were counted in high-power fields (HPFs). HUVECs were suspended in media with the inhibitor for 30 minutes before placement in the chamber. Each determination shown in FIG. 16 represents the average of nine HPF measurements.

B1: TyrRS carboxyl-terminal domain: residues 359-528 of full-length TyrRS (protein)
chain: MPEEVIPSRLDIRVGKIITVEKHPDADSLYVEKIDVGEAEPRTVVSGLVQFVPKEELQDRLVVVLCNLKPQKMRGVESQGMLLCASIEGINRQVEPLDPPAGSAPGEHVFVKGYEKGQPDEELKPKKKVFEKLQADFKISEECIAQWKQTNFMTKLGSISCKSLKGGNISLEHHHHHH
modifications: His6 tag; Human TyrRS carboxyl-terminal domain in pET20B
notes: residues 359-528 of full-length TyrRS
Q: B1 was tested. Which “MP chemotaxis (MP migration)” value (MPs [1]) did it give?
A: induced MP migration to an extent comparable with that observed for EMAP II

Q: And the “MP TNFα production” value (MPs [2])?
A: stimulated production

Q: And the “MP tissue factor production” value (MPs [3])?
A: stimulated production

Q: What about the “PMN release of myeloperoxidase” value (PMNs [4]) of the same molecule?
A: induced the release of myeloperoxidase in PMNs

Q: What about the “concentration dependence of PMN migration” value (PMNs [5]) of the same molecule?
A: bell-shaped concentration dependence

Q: And the “PMN chemotaxis (PMN migration)” value (PMNs [5])?
A: induced PMN migration

Q: And the “inhibition of 125I-mini TyrRS binding to PMNs by unlabeled ligand” value (PMNs [6])?
A: neither the TyrRS carboxyl-terminal domain nor EMAP II inhibited

B2: E. coli TyrRS: E. coli tyrosyl-tRNA synthetase, similar in size to human mini TyrRS (protein)
chain: MASSNLIKQLQERGLVAQVTDEEALAERLAQGPIALYCGFDPTADSLHLGHLVPLLCLKRFQQAGHKPVALVGGATGLIGDPSFKAAERKLNTEETVQEWVDKIRKQVAPFLDFDCGENSAIAANNYDWFGNMNVLTFLRDIGKHFSVNQMINKEAVKQRLNREDQGISFTEFSYNLLQGYDFACLNKQYGVVLQIGGSDQWGNITSGIDLTRRLHQNQVFGLTVPLITKADGTKFGKTEGGAVWLDPKKTSPYKFYQFWINTADADVYRFLKFFTFMSIEEINALEEEDKNSGKAPRAQYVLAEQVTRLVHGEEGLQAAKRITECLFSGSLSALSEADFEQLAQDGVPMVEMEKGADLMQALVDSELQPSRGQARKTIASNAITINGEKQSDPEYFFKEEDRLFGRFTLLRRGKKNYCLICWK
Q: Which results are given for B2?
A: MP chemotaxis (MP migration) (MPs [1]): inactive in all of the assays; MP TNFα production (MPs [2]): inactive in all of the assays; MP tissue factor production (MPs [3]): inactive in all of the assays; PMN release of myeloperoxidase (PMNs [4]): inactive in all of the assays; PMN chemotaxis (PMN migration) (PMNs [5]): inactive in all of the assays; also recorded: no chemotaxis was observed; inhibition of 125I-mini TyrRS binding to PMNs by unlabeled ligand (PMNs [6]): did not inhibit the binding

B3: full-length TyrRS: recombinant human tyrosyl-tRNA synthetase, 528 amino acid residues, C-terminal His6 tag (protein)
chain: MGDAPSPEEKLHLITRNLQEVLGEEKLKEILKERELKIYWGTATTGKPHVAYFVPMSKIADFLKAGCEVTILFADLHAYLDNMKAPWELLELRVSYYENVIKAMLESIGVPLEKLKFIKGTDYQLSKEYTLDVYRLSSVVTQHDSKKAGAEVVKQVEHPLLSGLLYPGLQALDEEYLKVDAQFGGIDQRKIFTFAEKYLPALGYSKRVHLMNPMVPGLTGSKMSSSEEESKIDLLDRKEDVKKKLKKAFCEPGNVENNGVLSFIKHVLFPLKSEFVILRDEKWGGNKTYTAYVDLEKDFAAEVVHPGDLKNSVEVALNKLLDPIREKFNTPALKKLASAAYPDPSKQKPMAKGPAKNSEPEEVIPSRLDIRVGKIITVEKHPDADSLYVEKIDVGEAEPRTVVSGLVQFVPKEELQDRLVVVLCNLKPQKMRGVESQGMLLCASIEGINRQVEPLDPPAGSAPGEHVFVKGYEKGQPDEELKPKKKVFEKLQADFKISEECIAQWKQTNFMTKLGSISCKSLKGGNISLEHHHHHH
modifications: C-terminal His6 tag; Human full-length TyrRS in pET20B
notes: recombinant human tyrosyl-tRNA synthetase, 528 amino acid residues, C-terminal His6 tag
Q: With B3 as the molecule, how does the “MP chemotaxis (MP migration)” value (MPs [1]) read?
A: no chemotaxis was observed

Q: And the “MP TNFα production” value (MPs [2])?
A: none of the properties observed for the carboxyl-terminal domain

Q: What about the “MP tissue factor production” value (MPs [3]) of the same molecule?
A: none of the properties observed for the carboxyl-terminal domain

Q: And the “PMN release of myeloperoxidase” value (PMNs [4])?
A: none of the properties observed for the carboxyl-terminal domain

Q: What about the “PMN chemotaxis (PMN migration)” value (PMNs [5]) of the same molecule?
A: none of the properties observed for the carboxyl-terminal domain

Q: And the “inhibition of 125I-mini TyrRS binding to PMNs by unlabeled ligand” value (PMNs [6])?
A: did not inhibit the binding

Q: And the HUVEC chemotaxis [7]?
A: no chemotaxis was observed
